Measured values reported in article PMC11139282, “Structure and activity of the septal peptidoglycan hydrolysis machinery crucial for bacterial cell division” (PLOS Biology, 2024).

Assays:
[1] = target: T1, EnvC_(35-420) (E. coli K-12, UniProt P37690 35-419); experiment: cryo-EM structure; ATP-bound FtsE^E163QX^Δ4-18-EnvC(35-420) reconstituted in PMAL-C8, about 1 mg/ml, 3.11 Å; conditions: both partners purified
T1 construct: Only part of the coiled-coil domain is modelled in the cryo-EM structure; also called ecEnvC; source: E. coli C43(DE3), purified (Ni-NTA, SEC, TEV, Ni-NTA, SEC); not shown: His8, N-terminal, cleaved; SUMO, N-terminal, cleaved; Strep tag II, C-terminal, kept
T1 sequence (looked up): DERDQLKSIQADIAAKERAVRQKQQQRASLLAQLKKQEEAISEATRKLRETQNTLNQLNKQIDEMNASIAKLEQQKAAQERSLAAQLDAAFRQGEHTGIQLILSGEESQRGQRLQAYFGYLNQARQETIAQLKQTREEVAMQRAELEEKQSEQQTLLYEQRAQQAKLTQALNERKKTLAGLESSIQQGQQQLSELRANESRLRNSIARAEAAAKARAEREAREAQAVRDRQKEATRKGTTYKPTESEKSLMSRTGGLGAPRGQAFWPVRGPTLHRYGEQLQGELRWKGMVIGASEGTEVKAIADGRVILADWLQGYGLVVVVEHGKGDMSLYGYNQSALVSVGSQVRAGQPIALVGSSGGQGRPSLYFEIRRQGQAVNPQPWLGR

[2] = target: the molecule itself; experiment: as above
[3] = target: T1, EnvC_(35-420); experiment: pull-down + SEC; purified FtsE^E163QX or FtsX incubated with EnvC(35-420)-Strep at a molar ratio of 1:1.5, moved into PMAL-C8; Strep column to remove unbound FtsEX or FtsX, then Superdex 200 in 20 mM Tris pH 8.0, 300 mM NaCl (1 mM ATP for FtsE^E163QX); peak validated by SDS-PAGE; conditions: both partners purified

B1: FtsX^Δ4–18 (natural protein, E. coli K-12, UniProt P0AC30 1-352, looked up)
chain: MNKRFRKSVGGSGDGGRNAPKRAKSSPKPVNRKTNVFNEQVRYAFHGALQDLKSKPFATFLTVMVIAISLTLPSVCYMVYKNVNQAATQYYPSPQITVYLQKTLDDDAAAGVVAQLQAEQGVEKVNYLSREDALGEFRNWSGFGGALDMLEENPLPAVAVVIPKLDFQGTESLNTLRDRITQINGIDEVRMDDSWFARLAALTGLVGRVSAMIGVLMVAAVFLVIGNSVRLSIFARRDSINVQKLIGATDGFILRPFLYGGALLGFSGALLSLILSEILVLRLSSAVAEVAQVFGTKFDINGLSFDECLLLLLVCSMIGWVAAWLATVQHLRHFTPE
notes: FtsX, E. coli K-12, with residues 4-18 deleted; The results call the cryo-EM sample FtsE^E163QX; the methods say that the grids held FtsE^E163QX^Δ4-18; also called ecFtsX
[1]
  binding result: binds
[2]
  binding result: binds

B2: FtsE^E163Q (natural protein, E. coli K-12, UniProt P0A9R7 1-222, looked up)
chain: MIRFEHVSKAYLGGRQALQGVTFHMQPGEMAFLTGHSGAGKSTLLKLICGIERPSAGKIWFSGHDITRLKNREVPFLRRQIGMIFQDHHLLMDRTVYDNVAIPLIIAGASGDDIRRRVSAALDKVGLLDKAKNFPIQLSGGEQQRVGIARAVVNKPAVLLADQPTGNLDDALSEGILRLFEEFNRVGVTVLMATHDINLISRRSYRMLTLSDGHLHGGVGHE
notes: The pSUMO plasmid adds an N-terminal His8-SUMO-TEV site, removed by TEV; Two copies stand in the FtsEX complex; also called ecFtsE^E163Q; not shown: His8 (chain inferred: first gene of pSUMO-ftsEX), N-terminal, cleaved; SUMO (chain inferred: first gene of pSUMO-ftsEX), N-terminal, cleaved
[2]
  binding result: binds

B3: FtsX (purified alone) (natural protein, E. coli K-12, UniProt P0AC30 1-352, looked up)
chain: MNKRDAINHIRQFGGRLDRFRKSVGGSGDGGRNAPKRAKSSPKPVNRKTNVFNEQVRYAFHGALQDLKSKPFATFLTVMVIAISLTLPSVCYMVYKNVNQAATQYYPSPQITVYLQKTLDDDAAAGVVAQLQAEQGVEKVNYLSREDALGEFRNWSGFGGALDMLEENPLPAVAVVIPKLDFQGTESLNTLRDRITQINGIDEVRMDDSWFARLAALTGLVGRVSAMIGVLMVAAVFLVIGNSVRLSIFARRDSINVQKLIGATDGFILRPFLYGGALLGFSGALLSLILSEILVLRLSSAVAEVAQVFGTKFDINGLSFDECLLLLLVCSMIGWVAAWLATVQHLRHFTPE
notes: FtsX, E. coli K-12; The plasmid section describes pET28a-ftsX (N-terminal 8xHis); the purification section names pSUMO-ftsX (His8-SUMO), tag not removed; Whether SUMO stood on the protein is open; not shown: His8, N-terminal, kept
[3]
  binding result: binds
